Results reported in the supplement of paper PMC7877785.
± gives the uncertainty stated by the source.

Assay: self-splicing fitness, log relative to wild type (ln ratio); higher = more splicing; Tetrahymena group I intron in knt gene, E. coli kanamycin selection, DiMSum; sequences stand for … in CUCUCU…GGAGGGAAAAGUUAUCAGGCAUGCACCUGGUAGCUAGUCUUUAAACCAAUAGAUUGCAUCGGUUUAAAAGGCAAGACCGUCAAAUUGCGGGAAAGGGGUCAACAGCCGUUCAGUACCAAGUCUCAGGGGAAACUUUGAGAUGGCCUUGCAAAGGGUAUGGUAAUAAGCUGACGGACAUGGUCCUAACCACGCAGCCAAGUCCUAAGUCAACAGAUCUUCUGUUGAUAUGGAUGCAGUUCACAGACUAAAUGUCGGUCGGGGAAGAUGUAUUCUUCUCAUAAGAUAUAGUCGGACCUCUCCUUAAUGGGAGCUAGCGGAUGAAGUGAUGCAACACUGGAGCCGCUGGGAACUAAUUUGUAUGCGAAAGUAUAUUGAUUAGUUUUGGAGUACUCGUGGUCG
How it was run: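 The eight P1ex-region nucleotides of an intron in the knt kanamycin-resistance gene on pET-22b(+) were all randomised and the library put into E. coli BL21(DE3). Six replicate transformations were grown overnight at 37°C or 30°C on LB agar with or without 25 μg/mL kanamycin, together with 100 μg/mL carbenicillin, 50 μM IPTG and 0.2% rhamnose. Colonies were pooled and amplicon-sequenced on an Illumina HiSeq 2500. Fitness from DiMSum is the error-weighted combination of wild-type-normalised replicate fold changes, kanamycin over none.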

Row | Sequence | self-splicing fitness (ln) (30 °C) | self-splicing fitness (ln) (37 °C)
1 | AUGUAGCAAUAUUACGGACU | -0.734 ± 0.11 | -0.231 ± 0.14
2 | CCCAAGCAAUAUUACGGCAU | -3.63 ± 0.16 | -2.84 ± 0.17
3 | UCGGAGCAAUAUUACGGUUU | – | -1.87 ± 0.34
4 | GCAGAGCAAUAUUACGACAG | -3.01 ± 0.15 | -2.74 ± 0.26
5 | GCUGAGCAAUAUUACGGCAU | -2.59 ± 0.2 | -1.82 ± 0.18
6 | GAAAAGCAAUAUUACGGCAA | -0.142 ± 0.1 | -0.719 ± 0.11
7 | GACAAGCAAUAUUACGACAA | -0.668 ± 0.11 | -0.951 ± 0.1
8 | AGUUAGCAAUAUUACGCUUC | -2.8 ± 0.18 | –
9 | CCAGAGCAAUAUUACGGCGA | -3.16 ± 0.26 | -2.65 ± 0.29
10 | ACGUAGCAAUAUUACGUUAA | -3.53 ± 0.25 | -2.58 ± 0.2
11 | ACGUAGCAAUAUUACGAGUU | -4.04 ± 0.17 | -1.3 ± 0.13
12 | AACUAGCAAUAUUACGGGUC | -1.88 ± 0.24 | -1.78 ± 0.22
13 | UUAAAGCAAUAUUACGUAGU | -3.87 ± 0.21 | -1.9 ± 0.18
14 | GCACAGCAAUAUUACGUCCC | -0.0609 ± 0.11 | -0.44 ± 0.11
15 | CCGCAGCAAUAUUACGUUCC | -3.27 ± 0.41 | -1.54 ± 0.43
16 | CUAAAGCAAUAUUACGGCUU | -3.8 ± 0.21 | -2.44 ± 0.29
17 | GAGGAGCAAUAUUACGUUUA | -1.89 ± 0.26 | -1.84 ± 0.32
18 | ACCGAGCAAUAUUACGUUGG | -4.16 ± 0.27 | -2.41 ± 0.22
19 | CUGAAGCAAUAUUACGUUCU | -3.39 ± 0.22 | -3.45 ± 0.37
20 | GAAUAGCAAUAUUACGCAAC | -2.63 ± 0.21 | -1.77 ± 0.3
21 | GCGUAGCAAUAUUACGCGGU | -2.42 ± 0.29 | -2.48 ± 0.3
22 | ACUCAGCAAUAUUACGUGCC | -0.982 ± 0.13 | -0.189 ± 0.12
23 | GCUGAGCAAUAUUACGACUC | -0.148 ± 0.2 | -0.469 ± 0.21
24 | GGGAAGCAAUAUUACGGAUG | -3.55 ± 0.21 | -1.15 ± 0.15
25 | CGGAAGCAAUAUUACGAGUG | -0.361 ± 0.05 | -0.0668 ± 0.075

Row | Sequence | self-splicing fitness (ln) (30 °C) | self-splicing fitness (ln) (37 °C)
26 | CGAGAGCAAUAUUACGACUA | -2.56 ± 0.46 | –
27 | UAACAGCAAUAUUACGGGGU | -4.16 ± 0.14 | -2.2 ± 0.12
28 | AUUUAGCAAUAUUACGCACA | -0.136 ± 0.093 | -0.202 ± 0.095
29 | AACCAGCAAUAUUACGACGU | -0.111 ± 0.046 | 0.409 ± 0.06
30 | CGGUAGCAAUAUUACGGACG | -0.708 ± 0.1 | -0.837 ± 0.13
31 | UUUCAGCAAUAUUACGCGAA | -2.03 ± 0.14 | -1.21 ± 0.14
32 | ACCAAGCAAUAUUACGCCAC | -1.48 ± 0.31 | -2.12 ± 0.3
33 | ACCAAGCAAUAUUACGAUUA | -2.23 ± 0.11 | -1.03 ± 0.085
34 | CGACAGCAAUAUUACGAUGC | -3.57 ± 0.17 | -1.92 ± 0.18
35 | CAAAAGCAAUAUUACGUGCU | -4.33 ± 0.2 | -2.27 ± 0.15
36 | UUCAAGCAAUAUUACGGUUA | -0.0762 ± 0.097 | 0.272 ± 0.086
37 | GUUAAGCAAUAUUACGUCCA | -1.21 ± 0.088 | 0.057 ± 0.097
38 | GAUGAGCAAUAUUACGUGGC | -3.24 ± 0.22 | -2.59 ± 0.26
39 | UGUCAGCAAUAUUACGUCGC | -1.14 ± 0.25 | –
40 | AGUAAGCAAUAUUACGAUGA | -2.3 ± 0.16 | -1.03 ± 0.13
41 | GAGUAGCAAUAUUACGGCUU | -2.2 ± 0.12 | -1.78 ± 0.15
42 | UUGAAGCAAUAUUACGCCUA | 0.0255 ± 0.13 | 0.487 ± 0.22
43 | AUCUAGCAAUAUUACGUAAA | -2.41 ± 0.15 | -1.29 ± 0.14
44 | UAGGAGCAAUAUUACGCCGA | -2.76 ± 0.21 | -0.577 ± 0.27
45 | GCCUAGCAAUAUUACGCGAA | -2.72 ± 0.18 | -1.64 ± 0.14
46 | CACAAGCAAUAUUACGGUUC | -4.1 ± 0.22 | -2.66 ± 0.19
47 | ACUGAGCAAUAUUACGUGAA | -2.94 ± 0.17 | -2.09 ± 0.17
48 | UCGGAGCAAUAUUACGGGUG | -3.03 ± 0.24 | -2.94 ± 0.2
49 | AAGCAGCAAUAUUACGCUCU | -1.55 ± 0.098 | -0.549 ± 0.11
50 | UAGCAGCAAUAUUACGAUUU | -2.03 ± 0.11 | -0.879 ± 0.12

Row | Sequence | self-splicing fitness (ln) (30 °C) | self-splicing fitness (ln) (37 °C)
51 | GUGUAGCAAUAUUACGGGCA | -0.665 ± 0.18 | -1.29 ± 0.19
52 | GCGCAGCAAUAUUACGGCCG | -2.99 ± 0.38 | -2.26 ± 0.26
53 | CGCGAGCAAUAUUACGUAAA | -3.8 ± 0.19 | -2.78 ± 0.15
54 | CAUCAGCAAUAUUACGUGAA | -0.729 ± 0.055 | -0.211 ± 0.09
55 | GUCAAGCAAUAUUACGUAAG | -2.15 ± 0.073 | -1.57 ± 0.11
56 | UACAAGCAAUAUUACGCAGU | -3.96 ± 0.27 | -3.27 ± 0.21
57 | CCCGAGCAAUAUUACGCGUU | -4.43 ± 0.3 | -2.22 ± 0.28
58 | CUCAAGCAAUAUUACGGGAC | -3.7 ± 0.33 | -2.14 ± 0.3
59 | AUGUAGCAAUAUUACGUAGU | -2.89 ± 0.18 | -1.42 ± 0.15
60 | UAUAAGCAAUAUUACGUAUA | -2.77 ± 0.21 | -0.986 ± 0.17
61 | GAGCAGCAAUAUUACGGUUU | -3.11 ± 0.17 | -1.84 ± 0.19
62 | AUUUAGCAAUAUUACGCCUG | -1.23 ± 0.12 | -0.529 ± 0.12
63 | CUUAAGCAAUAUUACGAAUC | -2.97 ± 0.23 | –
64 | ACAGAGCAAUAUUACGUUUU | -3.47 ± 0.24 | -3.26 ± 0.32
65 | GACGAGCAAUAUUACGCAAU | – | -2.74 ± 0.31
66 | UUUAAGCAAUAUUACGGAGA | -2.18 ± 0.21 | -0.727 ± 0.17
67 | CCCCAGCAAUAUUACGCCCA | -2.11 ± 0.26 | -1.37 ± 0.25
68 | ACGUAGCAAUAUUACGGGCG | -0.566 ± 0.19 | -1.07 ± 0.19
69 | CCCGAGCAAUAUUACGCCAA | -3.35 ± 0.31 | -2.12 ± 0.26
70 | UGAAAGCAAUAUUACGAAGG | -2.92 ± 0.21 | -1.48 ± 0.25
71 | AAUCAGCAAUAUUACGUUCC | -2.26 ± 0.24 | -0.62 ± 0.22
72 | AAAAAGCAAUAUUACGACCG | -0.107 ± 0.13 | -0.00629 ± 0.17
73 | CACGAGCAAUAUUACGCACG | -2.13 ± 0.21 | -1.15 ± 0.21
74 | UGGAAGCAAUAUUACGCGGG | -3.32 ± 0.24 | -1.29 ± 0.22
75 | UCCGAGCAAUAUUACGCUCA | -3.08 ± 0.32 | -2.3 ± 0.47

Row | Sequence | self-splicing fitness (ln) (30 °C) | self-splicing fitness (ln) (37 °C)
76 | CCGCAGCAAUAUUACGAUAC | -2.77 ± 0.28 | -2.19 ± 0.46
77 | UACAAGCAAUAUUACGGGCC | -3.08 ± 0.23 | -2.55 ± 0.22
78 | GGGAAGCAAUAUUACGUACU | -2.15 ± 0.21 | -2.2 ± 0.22
79 | CAACAGCAAUAUUACGAGCU | -3.61 ± 0.18 | -2.44 ± 0.17
80 | CUUAAGCAAUAUUACGACAC | -3.04 ± 0.38 | -1.54 ± 0.44
81 | AGGCAGCAAUAUUACGUGCG | -0.971 ± 0.082 | -0.24 ± 0.11
82 | CGUUAGCAAUAUUACGAGAU | -2.01 ± 0.23 | -2.33 ± 0.35
83 | CUGCAGCAAUAUUACGCUUA | -3.04 ± 0.29 | -3.98 ± 0.46
84 | GUGUAGCAAUAUUACGUUUC | -2.63 ± 0.13 | -1.92 ± 0.13
85 | AGUUAGCAAUAUUACGGAUG | -0.996 ± 0.11 | -0.801 ± 0.15
86 | CUGUAGCAAUAUUACGGACC | -2.03 ± 0.47 | –
87 | AUGUAGCAAUAUUACGGUAU | -1.24 ± 0.093 | -0.0188 ± 0.11
88 | GUGCAGCAAUAUUACGUUAG | -2.62 ± 0.14 | -0.353 ± 0.11
89 | GAUUAGCAAUAUUACGGAAA | -2.25 ± 0.29 | -2.19 ± 0.22
90 | AUGCAGCAAUAUUACGUGGG | – | -2.97 ± 0.28
91 | CGGAAGCAAUAUUACGUGGU | -3.62 ± 0.21 | -1.94 ± 0.2
92 | AUGCAGCAAUAUUACGCUUA | -1.26 ± 0.1 | -0.294 ± 0.094
93 | GCAGAGCAAUAUUACGCAAG | -3.03 ± 0.16 | -2.28 ± 0.17
94 | CAACAGCAAUAUUACGCGAA | -2.16 ± 0.16 | -1.61 ± 0.14
95 | GGCAAGCAAUAUUACGAAGC | -1.69 ± 0.27 | -0.628 ± 0.47
96 | CGCGAGCAAUAUUACGAGAA | – | -2.08 ± 0.34
97 | GCAUAGCAAUAUUACGGUAU | -2.86 ± 0.16 | -1.75 ± 0.12
98 | CCUCAGCAAUAUUACGUGAA | -3.66 ± 0.2 | -2.22 ± 0.2
